# Assay results: the supplement of paper PMC12764529
# ± gives the half width of the 95% confidence interval.
# Tests used:
# [1] = folding stability dG unfold from trypsin proteolysis; higher = more stable
# Method in brief: (§1)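 Bayesian fitting of sequencing counts gave K50 for each design. Unfolding free energy followed by setting this against a sequence-predicted unfolded-state K50 and a shared folded-state K50, either per protease or with trypsin and chymotrypsin combined. The designs, under 80 residues and lacking cysteine, were digested in a PA-tagged cDNA display format at 11 threefold-diluted protease concentrations and without protease, and only those with AlphaFold2 dimer inter-PAE above 15 were kept.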
# [2] = folding stability dG unfold from chymotrypsin proteolysis; higher = more stable
# Method in brief: as §1
# [3] = folding stability dG unfold (combined trypsin and chymotrypsin); higher = more stable
# Method in brief: as §1
Sequence,folding stability dG unfold [1],folding stability dG unfold [2],folding stability dG unfold [3]
SAGGSAGGSAGGSKTVLLKVNGKLVLKELKVEVELEAEPETTTTTTTTTTLKPGETKTLSAGGSAGGSAGGS [r4_215_TrROS_Hall],-0.499 ± 0.17 kcal/mol,0.397 ± 0.11 kcal/mol,0.109 ± 0.096 kcal/mol
SAGGSAGGSAGGSKTYRIYFKDNNKVITVKSKEDLKAALEKAGYTISEEDLDKIVKIEPSAGGSAGGSAGGS [r4_104_TrROS_Hall],1.69 ± 0.046 kcal/mol,1.81 ± 0.07 kcal/mol,1.8 ± 0.087 kcal/mol
SAGGSAGGSAGGSLAFEGSFRFRKLKLTFKRKLTRTRPDGEPEEFEEELELEVEVVLPVSAGGSAGGSAGGS [r4_418_TrMRF],3.77 ± 0.09 kcal/mol,4.84 ± 0.15 kcal/mol,4.21 ± 0.4 kcal/mol
SAGGSAGGSAGGSLEAIRKAIEEAQKNGHTVPISVRHPNGKDFTFEIEIQVVKPPPDEKSAGGSAGGSAGGS [r10_573_TrROS],1.28 ± 0.043 kcal/mol,1.47 ± 0.066 kcal/mol,1.46 ± 0.13 kcal/mol
SAGGSAGGSAGGSLEIEITFELPDDVRLRIRARIEPLPDGSLKVEVEIELIPVKPDEDLSAGGSAGGSAGGS [r10_241_TrMRF],3.17 ± 0.15 kcal/mol,2.9 ± 0.089 kcal/mol,3.09 ± 0.21 kcal/mol
SAGGSAGGSAGGSLETRPVLLILKDEEGKPYAVARLEVRELPNGGVEVTVTEIVPAEELSAGGSAGGSAGGS [r4_117_TrMRF],0.912 ± 0.035 kcal/mol,1.5 ± 0.095 kcal/mol,1.36 ± 0.11 kcal/mol
SAGGSAGGSAGGSLPLILRLAEENGFSVSAVPIPETGTYKAVVTLPDGKPITIELPLTLSAGGSAGGSAGGS [r4_121_TrMRF],0.295 ± 0.12 kcal/mol,1.04 ± 0.33 kcal/mol,0.804 ± 0.2 kcal/mol
SAGGSAGGSAGGSMATITPEGDKYLVTITNPDGSTTTKEFDSLEEVKKLPSSYPIEFSDSAGGSAGGSAGGS [r4_447_JUSTAS],2.11 ± 0.065 kcal/mol,0.802 ± 0.026 kcal/mol,1.52 ± 0.094 kcal/mol
SAGGSAGGSAGGSMIIRIETKDGKIIEIEIKEDEDKTPEEIAKELAKKYNIKKIEIFEPSAGGSAGGSAGGS [r4_116_TrROS_Hall],3.27 ± 0.12 kcal/mol,3.57 ± 0.062 kcal/mol,3.44 ± 0.096 kcal/mol
SAGGSAGGSAGGSMITIEVTTPTEKHTIEVPEDEVPEEELIERAKKLFPDVEKITILKESAGGSAGGSAGGS [r4_235_JUSTAS],0.65 ± 0.037 kcal/mol,0.613 ± 0.059 kcal/mol,0.636 ± 0.08 kcal/mol
SAGGSAGGSAGGSMIVVPVTSNEVVDNLGGPVTVPAGTVIIIERTENSVKVEVLPPEKLSAGGSAGGSAGGS [r10_353_JUSTAS],0.917 ± 0.048 kcal/mol,0.353 ± 0.019 kcal/mol,0.643 ± 0.11 kcal/mol
SAGGSAGGSAGGSMKEVTITLTDPETGKVSTLVLKLSPEEIEKAAEELAKSSGKKVTIRSAGGSAGGSAGGS [r4_301_JUSTAS],1.04 ± 0.068 kcal/mol,1.99 ± 0.066 kcal/mol,1.78 ± 0.13 kcal/mol
SAGGSAGGSAGGSMKIEIVTNDPKKAEEIKEKLEKEGYPKKKNPINIEVKEISEEELLKSAGGSAGGSAGGS [r4_281_JUSTAS],-0.113 ± 0.085 kcal/mol,0.628 ± 0.053 kcal/mol,0.533 ± 0.16 kcal/mol
SAGGSAGGSAGGSMLPPDTTVTSTTFLPNGTVVNTTTTYTATPDDTYTVTTTTTTTPLTSSAGGSAGGSAGG [r7_249_JUSTAS],0.765 ± 0.037 kcal/mol,0.631 ± 0.16 kcal/mol,0.766 ± 0.11 kcal/mol
SAGGSAGGSAGGSMLVELDENGKTLTIYDEETQELIEVEVEPAPPVEETVTEVSEEELKSAGGSAGGSAGGS [r4_56_TrROS_Hall],0.666 ± 0.098 kcal/mol,0.000558 ± 0.08 kcal/mol,0.375 ± 0.26 kcal/mol
SAGGSAGGSAGGSMPENLVTITTETTVVKSPLANPVNESPVWEVEVISSPVTVVPPSLLSAGGSAGGSAGGS [r4_417_JUSTAS],1.25 ± 0.087 kcal/mol,0.0877 ± 0.12 kcal/mol,0.812 ± 0.1 kcal/mol
SAGGSAGGSAGGSMSGVFSTETVFLEKTLPDGSRVEALTTIETYLPLPPLPPFKFPSAVSAGGSAGGSAGGS [r4_325_JUSTAS],0.13 ± 0.1 kcal/mol,0.415 ± 0.13 kcal/mol,0.437 ± 0.26 kcal/mol
SAGGSAGGSAGGSMSSSSSPLPDEDGLVTRGKSSEPSPPFTWTTTVDSSGVPSTTVTSLESAGGSAGGSAGG [r7_187_JUSTAS],-0.484 ± 0.1 kcal/mol,0.602 ± 0.051 kcal/mol,0.323 ± 0.07 kcal/mol
SAGGSAGGSAGGSMTITYDKENKTLTIKLPNGKKVLTVNLENMTPEQLKELAKKLGLEVSAGGSAGGSAGGS [r4_49_TrROS_Hall],3.18 ± 0.2 kcal/mol,3.62 ± 0.076 kcal/mol,3.44 ± 0.11 kcal/mol
SAGGSAGGSAGGSMTTVTLPDAVSTNVTTTKLPDNTTKVDITTTFPDGSTRSSTITINPSAGGSAGGSAGGS [r4_452_JUSTAS],-0.305 ± 0.049 kcal/mol,1.32 ± 0.05 kcal/mol,0.908 ± 0.07 kcal/mol
SAGGSAGGSAGGSMTVTLSREELLRLLGVPPGVPIPESVLAKIKSIETLPDGSVTVTIGSAGGSAGGSAGGS [r4_369_JUSTAS],1.98 ± 0.027 kcal/mol,3.118 ± 0.027 kcal/mol,2.74 ± 0.11 kcal/mol

Sequence,folding stability dG unfold [1],folding stability dG unfold [2],folding stability dG unfold [3]
SAGGSAGGSAGGSMTVTVTLKDGSTRTFAVPADAPLTLEQLEAAGYPAADIAEVTVTAESAGGSAGGSAGGS [r10_565_JUSTAS],1.88 ± 0.049 kcal/mol,3.292 ± 0.021 kcal/mol,2.96 ± 0.038 kcal/mol
SAGGSAGGSAGGSMVKVEKNGEGVVTTTTKYFFYPSTGKWSSETITTTKKVPKDEPFPLSAGGSAGGSAGGS [r4_215_JUSTAS],-0.159 ± 0.14 kcal/mol,-0.0539 ± 0.33 kcal/mol,-0.0856 ± 0.23 kcal/mol
SAGGSAGGSAGGSNDNVVPITILFVDPGKDDRLYLREIRLRIYENGDIEAEVKVYELPLSAGGSAGGSAGGS [r10_598_TrMRF],2.87 ± 0.11 kcal/mol,4.12 ± 0.075 kcal/mol,3.68 ± 0.1 kcal/mol
SAGGSAGGSAGGSPDGWKFKMEMFTVKVPGAKITIPDGKSITLPPGKEVTIMIMTYVPPSAGGSAGGSAGGS [r4_26_TrROS],2.25 ± 0.068 kcal/mol,3.81 ± 0.086 kcal/mol,3.47 ± 0.092 kcal/mol
SAGGSAGGSAGGSPGNYREVEIEFRDPDDNGKEVKIEIWVQPGMPEEQIKEFVRELLRRSAGGSAGGSAGGS [r4_442_TrROS],0.942 ± 0.18 kcal/mol,1.4 ± 0.19 kcal/mol,1.32 ± 0.25 kcal/mol
SAGGSAGGSAGGSPKVYVELRFKLPNNLYVEIRYEIDPEKPGYVDWEVRLFDENGNPLGSAGGSAGGSAGGS [r4_297_TrMRF],3.61 ± 0.23 kcal/mol,4.74 ± 0.096 kcal/mol,4.56 ± 0.16 kcal/mol
SAGGSAGGSAGGSPNWVWILITVKITFPIYKYDPDGKPLEPIEITIEFTVLIRIPPGDFSAGGSAGGSAGGS [r4_425_TrROS],3.63 ± 0.19 kcal/mol,5.34 ± 0.18 kcal/mol,5.15 ± 0.27 kcal/mol
SAGGSAGGSAGGSPSETLEVTLADGTRLTVTRNADGSLTVTVEPAPPPPVVVFKSPEELSAGGSAGGSAGGS [r4_120_TrROS_Hall],1.44 ± 0.025 kcal/mol,0.623 ± 0.14 kcal/mol,1.14 ± 0.096 kcal/mol
SAGGSAGGSAGGSPVAAKTLSKSTSLLPNGKVKTSTTTAFPTGETTTTTTTTPLSLTLTSAGGSAGGSAGGS [r10_1206_JUSTAS],-0.654 ± 0.27 kcal/mol,0.158 ± 0.17 kcal/mol,-0.0493 ± 0.12 kcal/mol
SAGGSAGGSAGGSPVSPKIVTTDPGPNVITTVYYSPEDGKVLSTSTTVVPPLPPGEILTSAGGSAGGSAGGS [r10_1051_JUSTAS],1.45 ± 0.085 kcal/mol,0.817 ± 0.21 kcal/mol,1 ± 0.32 kcal/mol
SAGGSAGGSAGGSQDLVKITIKLPGGEEKEITTPAEEIDKAIKELGIKKEDVEILEITEVSAGGSAGGSAGG [r7_211_JUSTAS],1.13 ± 0.093 kcal/mol,1.56 ± 0.051 kcal/mol,1.34 ± 0.24 kcal/mol
SAGGSAGGSAGGSSEPVVILVPVLPDAEEAVVDIGGHPALVKRFPDSPLAAITVPKELLSAGGSAGGSAGGS [r4_430_TrMRF],0.0985 ± 0.033 kcal/mol,-0.581 ± 0.048 kcal/mol,-0.149 ± 0.066 kcal/mol
SAGGSAGGSAGGSSKNRPLVIIDYPFYTSNPDYIVRATFINYLDENNNITEVKVEVLKASAGGSAGGSAGGS [r4_75_TrMRF],2.3 ± 0.22 kcal/mol,3.14 ± 0.095 kcal/mol,2.59 ± 0.27 kcal/mol
SAGGSAGGSAGGSSLASDPTVPPDEPRTVTVLEPEPGGRLRVVTYEETPAGRRPVSALLSAGGSAGGSAGGS [r10_288_JUSTAS],-0.782 ± 0.95 kcal/mol,1.09 ± 0.26 kcal/mol,0.336 ± 0.21 kcal/mol
SAGGSAGGSAGGSSMAIKKVSEFLLRPENGELIKVTVYRKPGPETIVTVIGDKTYTFEPSAGGSAGGSAGGS [r4_114_JUSTAS],-0.855 ± 0.25 kcal/mol,0.336 ± 0.11 kcal/mol,0.0399 ± 0.1 kcal/mol
SAGGSAGGSAGGSSMITVSTTSFPDGTRKVTITEPGTGKPLKTVDMPPSESVSAVKEKLSSAGGSAGGSAGG [r7_633_JUSTAS],-0.012 ± 0.1 kcal/mol,-0.67 ± 0.2 kcal/mol,-0.245 ± 0.2 kcal/mol
SAGGSAGGSAGGSSMSSGPGRLSITTSTVDTGSFFKPGGEVEGSKTTTVTVTTLLPPSTPSAGGSAGGSAGG [r7_614_JUSTAS],0.21 ± 0.025 kcal/mol,1.27 ± 0.067 kcal/mol,0.908 ± 0.054 kcal/mol
SAGGSAGGSAGGSSSSTVPLPDDTTLTVHTGSSSYTVTTTSPDGTSTTTTVSPATVAAALSAGGSAGGSAGG [r11_1068_JUSTAS],0.255 ± 0.022 kcal/mol,-0.0339 ± 0.1 kcal/mol,0.188 ± 0.077 kcal/mol
SAGGSAGGSAGGSSTSLIGNSTVTVDPVYVTDTGERGFVISADVPPSVSEAVVEAHVASSAGGSAGGSAGGS [r10_531_JUSTAS],0.869 ± 0.028 kcal/mol,0.0382 ± 0.022 kcal/mol,0.485 ± 0.05 kcal/mol
SAGGSAGGSAGGSSYQLKLEAEFLVGDSSGKLYKVKLTITVNEDGSISIDLEVLSVFDVSAGGSAGGSAGGS [r4_496_TrMRF],4.16 ± 0.2 kcal/mol,5.46 ± 0.11 kcal/mol,5.41 ± 0.16 kcal/mol
SAGGSAGGSAGGSTRDFLVKDPSNGQWYKVTATTDPAGAVTITFPETGEVVPLEGLVVSPSAGGSAGGSAGG [r11_301_JUSTAS],1.47 ± 0.046 kcal/mol,1.338 ± 0.012 kcal/mol,1.43 ± 0.042 kcal/mol
